Laboratory results reported in patent US20040214773A1 (UNIVERSITY OF CHICAGO, published 2004).

Molecular target: human cathepsin B (human, UniProt P07858 80-333)
Assay: second-order association rate constant from continuous hydrolysis of (Z-FR)2-R110, pseudo-first order conditions, 20 nM cathepsin B, 200 or 400 nM Spi2A
Method: Kinetics of cathepsin B inhibition by Spi2A. […] Briefly, 20 nM cathepsin B was added to 5 μM substrate, in presence or in absence of 200 or 400 nM (10- or 20-fold excess respectively) of Spi2A in activation buffer. Reactions were performed in 96-well microtitre plates. The final reaction volume was 200 μl. The rate of substrate hydrolysis was continuously monitored for 3 min. The dead time for the measurement (the time between the addition of the enzyme to the substrate (with or without inhibitor) and the first spectrophotometric measurement was ˜30 s.

B1: Spi2A-3xFLAG (murine serine protease inhibitor 2A with a C-terminal 3xFLAG epitope tag) (other)
chain: MAGVSPAVFGCPDVTLGRNTAVREVQENVTSVDSLTLVSSNTDFAFSLYRKLVLKNPDENVVFSPFSICTALALLSLGAKSNTLKEILEGLKFNLTETPEPDIHQGFRYLLDLLSQPGNQVQISTGSALFIEKHLQILAEFKEKARALYQAEAFTADFQQPLKATKLINDYVSNHTQGKIKELISGLKESTLMVLVNYIYFKGKWKNPFDPNDTFKSEFYLDEKRSVIVSMMKTGYLTTPYFRDEELSCTVVELKYTGNASAMFILPDQGRMQQVEASLQPETLRKWKNSLKPRMIHELRLPKFSISTDYSLEHILPELGIREVFSTHADLSAITGTKDLRVSQVVHKAVLDVAEKGTEAAAATGMAGVGCCAVFDFLEIFFNRPFLMIISDTKAHIALFMAKVTNPERSTNFPNGEGASSQRLESKRLCFGDPLCLIGQ
notes: Purified from lysates of RelA-/- MEFs transduced with retrovirus encoding Spi2A-3xFLAG (ion exchange, then anti-FLAG column); The ORF was amplified from T cell cDNA; also called FLAG-tagged Spi2A; not shown: C-terminal 3xFLAG (22 amino acids) from the 3xFLAG-CMV-14 vector
kon: > 1e+06 M⁻¹ s⁻¹
